Consider three molecules from patent US20060040855A1 (published 2006).

The experiment deals with rat LH receptor (rat, UniProt P16235). Briefly: cell-based or functional assay.

B1: dgα5-β8 (dg-αQ5C/hCGβR8C) (ligand)
chain 1: not shown
chain 2: SKEPLRPCCRPINATLAVEKEGCPVCITVNTTICAGYCPTMTRVLQGVLPALPQVVCNYRDVRFESIRLPGCPRGVNPVVSYAVALSCQCALCRRSTTDCGGPKDHPLTCDDPRFQDSSSSKAPPPSLPSPSRLPGPSDTPILPQ
As to B1, the “Efficacy, cyclic AMP accumulation” value is 36%.

B2: dgα27-β44 (dg-αQ27C/hCGβV44C) (ligand)
chain 1: not shown
chain 2: SKEPLRPRCRPINATLAVEKEGCPVCITVNTTICAGYCPTMTRCLQGVLPALPQVVCNYRDVRFESIRLPGCPRGVNPVVSYAVALSCQCALCRRSTTDCGGPKDHPLTCDDPRFQDSSSSKAPPPSLPSPSRLPGPSDTPILPQ
Take B2: the “Efficacy, cyclic AMP accumulation” value is 14%.

B3: dgα76-β44 (dg-αV76C/hCGβV44C) (ligand)
chain 1: not shown
chain 2: SKEPLRPRCRPINATLAVEKEGCPVCITVNTTICAGYCPTMTRCLQGVLPALPQVVCNYRDVRFESIRLPGCPRGVNPVVSYAVALSCQCALCRRSTTDCGGPKDHPLTCDDPRFQDSSSSKAPPPSLPSPSRLPGPSDTPILPQ
With B3, the “Efficacy, cyclic AMP accumulation” value is 34%.
